Experimental data as given in PMC6075780, “Interaction of lipoprotein QseG with sensor kinase QseE in the periplasm controls the phosphorylation state of the two-component system QseE/QseF in Escherichia coli” (PLoS Genetics, 2018).

B1: T25-QseE [E. coli K-12] / T18-TM_(oppB)-QseG [E. coli K-12] (parent complex)
chain 1: MKRWPVFPRSLRQLVMLAFLLILLPLLVLAWQAWQSLNALSDQAALVNRTTLIDARRSEAMTNAALEMERSYRQYCVLDDPTLAKVYQSQRKRYSEMLDAHAGVLPDDKLYQALRQDLHNLAQLQCNNSGPDAAAAARLEAFASANTEMVQATRTVVFSRGQQLQREIAERGQYFGWQSLVLFLVSLVMVLLFTRMIIGPVKNIERMINRLGEGRSLGNSVSFSGPSELRSVGQRILWLSERLSWLESQRHQFLRHLSHELKTPLASMREGTELLADQVVGPLTPEQKEVVSILDSSSRNLQKLIEQLLDYNRKQADSAVELENVELAPLVETVVSAHSLPARAKMMHTDVDLKATACLAEPMLLMSVLDNLYSNAVHYGAESGNICLRSSLHGARVYIDVINTGTPIPQEERAMIFEPFFQGSHQRKGAVKGSGLGLSIARDCIRRMQGELYLVDESGQDVCFRIELPSSKNTK
chain 2: CVQNHNKPAIDTPAEEKIPVYQLADYLSTECSDIWALQGKSTETNPLYWLRAMDCADRLMPAQSRQQARQYDDGSWQNTFKQGILLADAKITPYERRQLVARIEALSTEIPAQVRPLYQLWRDGQALQLQLAEERQRYSKLQQSSDSELDTLRQQHHVLQQQLELTTRKLENLTDIERQLSTRKPAGNFSPDTPHESEKPAPSTHEVTPDEP

Variants of: B1
Assay: BACTH assay (bacterial two-hybrid, β-galactosidase read-out); reporter strain BTH101; plasmids pYG242/pYG199_TM1; parent: 1.6e+03; read off a plot

Q: For chain 1 MKRWPVFPRSLRQLVMLALLHRPPPLLVLAWQAWQSLNALSDQAALVNRTTLIDARRSEAMTNAALEMERSYRQYCVLDDPTLAKVYQSQRKRYSEMLDAHAGVLPDDKLYQALRQDLHNLAQLQCNNSGPDAAAAARLEAFASANTEMVQATRTVVFSRGQQLQREIAERGQYFGWQSLVLFLVSLVMVLLFTRMIIGPVKNIERMINRLGEGRSLGNSVSFSGPSELRSVGQRILWLSERLSWLESQRHQFLRHLSHELKTPLASMREGTELLADQVVGPLTPEQKEVVSILDSSSRNLQKLIEQLLDYNRKQADSAVELENVELAPLVETVVSAHSLPARAKMMHTDVDLKATACLAEPMLLMSVLDNLYSNAVHYGAESGNICLRSSLHGARVYIDVINTGTPIPQEERAMIFEPFFQGSHQRKGAVKGSGLGLSIARDCIRRMQGELYLVDESGQDVCFRIELPSSKNTK [chain 1 F19L, chain 1 L21H, chain 1 I22R, chain 1 L23P, chain 1 L24P], which response is on record?
A: ~70 Miller units

Variants of: B1
Assay: BACTH assay (bacterial two-hybrid, β-galactosidase read-out); reporter strain BTH101; plasmids pYG242/pYG199_1.6; parent: 1.6e+03; read off a plot

Q: With chain 1 MKRWPVFPRSLRQLVMLAFLLILLPLLVLAWQAWQSLNALSDQAALVNRTTLIDARRNEAMTNAALEMERSYRQYCVLDDPTLAKVYQSQRKRYSEMLDAHAGVLPDDKLYQALRQDLHNLAQLQCNNSGPDAAAAARLEAFASANTEMVQATRTVVFSRGQQLQREIAERGQYFGWQSLVLFLVSLVMVLLFTRMIIGPVKNIERMINRLGEGRSLGNSVSFSGPSELRSVGQRILWLSERLSWLESQRHQFLRHLSHELKTPLASMREGTELLADQVVGPLTPEQKEVVSILDSSSRNLQKLIEQLLDYNRKQADSAVELENVELAPLVETVVSAHSLPARAKMMHTDVDLKATACLAEPMLLMSVLDNLYSNAVHYGAESGNICLRSSLHGARVYIDVINTGTPIPQEERAMIFEPFFQGSHQRKGAVKGSGLGLSIARDCIRRMQGELYLVDESGQDVCFRIELPSSKNTK [chain 1 S58N] as the variant, how does the response read?
A: ~250 Miller units
